2 molecules from PMC3654228 (Nature communications, 2012) can be followed below.

For orientation: stoichiometry N means the number of molecules, sites or subunits per partner or assembly.

The target in data set [1] is Aly (UniProt Q9JJW6 1-218). Nature of the data set: UV crosslinking.
Data set [2] addresses T1, 6His-RBD-psiRRM-LRR (Homo sapiens, UniProt Q9UBU9 1-372).
T1 sequence: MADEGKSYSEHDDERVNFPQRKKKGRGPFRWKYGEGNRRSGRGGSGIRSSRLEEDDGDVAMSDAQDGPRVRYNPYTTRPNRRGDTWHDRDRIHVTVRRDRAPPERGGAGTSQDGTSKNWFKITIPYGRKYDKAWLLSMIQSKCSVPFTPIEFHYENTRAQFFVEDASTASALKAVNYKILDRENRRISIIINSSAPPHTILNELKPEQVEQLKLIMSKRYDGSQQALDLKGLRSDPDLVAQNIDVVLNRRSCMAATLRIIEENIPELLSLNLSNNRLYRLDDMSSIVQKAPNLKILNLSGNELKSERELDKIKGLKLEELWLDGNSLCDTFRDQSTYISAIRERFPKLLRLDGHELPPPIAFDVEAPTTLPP
Nature of the data set: UV crosslinking.

Data set [3] has as its target GST-Nxf1:p15;Aly;Thoc5 (Homo sapiens;;Homo sapiens?, UniProt Q9UBU9;Q9UKK6;Q9JJW6;Q13769 1-619;1-140;1-218;1-683, ||). Briefly: GST pulldown then UV crosslinking.
The target of data set [4] is T2, GST-RBD-psiRRM-LRR (Homo sapiens, UniProt Q9UBU9 1-372).
T2 sequence: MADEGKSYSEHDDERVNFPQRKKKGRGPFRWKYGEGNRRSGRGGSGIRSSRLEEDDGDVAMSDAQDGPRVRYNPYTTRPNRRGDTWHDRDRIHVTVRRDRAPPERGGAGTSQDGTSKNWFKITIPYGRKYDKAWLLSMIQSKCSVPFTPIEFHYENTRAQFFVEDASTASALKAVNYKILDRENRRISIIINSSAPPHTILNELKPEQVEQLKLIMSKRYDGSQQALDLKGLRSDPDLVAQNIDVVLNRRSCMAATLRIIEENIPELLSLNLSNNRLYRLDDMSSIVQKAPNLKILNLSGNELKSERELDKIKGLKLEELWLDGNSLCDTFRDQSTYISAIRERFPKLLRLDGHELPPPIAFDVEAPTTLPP
Briefly: UV crosslinking.

Data set [5] deals with GST-Nxf1:p15;Aly (Homo sapiens;, UniProt Q9UBU9;Q9UKK6;Q9JJW6 1-619;1-140;1-218, |). Briefly: GST pulldown then UV crosslinking.
Data set [6] addresses T3, Nxf1 (of the Nxf1:p15 used for gel filtration) (human, UniProt Q9UBU9 1-619).
T3 sequence (looked up): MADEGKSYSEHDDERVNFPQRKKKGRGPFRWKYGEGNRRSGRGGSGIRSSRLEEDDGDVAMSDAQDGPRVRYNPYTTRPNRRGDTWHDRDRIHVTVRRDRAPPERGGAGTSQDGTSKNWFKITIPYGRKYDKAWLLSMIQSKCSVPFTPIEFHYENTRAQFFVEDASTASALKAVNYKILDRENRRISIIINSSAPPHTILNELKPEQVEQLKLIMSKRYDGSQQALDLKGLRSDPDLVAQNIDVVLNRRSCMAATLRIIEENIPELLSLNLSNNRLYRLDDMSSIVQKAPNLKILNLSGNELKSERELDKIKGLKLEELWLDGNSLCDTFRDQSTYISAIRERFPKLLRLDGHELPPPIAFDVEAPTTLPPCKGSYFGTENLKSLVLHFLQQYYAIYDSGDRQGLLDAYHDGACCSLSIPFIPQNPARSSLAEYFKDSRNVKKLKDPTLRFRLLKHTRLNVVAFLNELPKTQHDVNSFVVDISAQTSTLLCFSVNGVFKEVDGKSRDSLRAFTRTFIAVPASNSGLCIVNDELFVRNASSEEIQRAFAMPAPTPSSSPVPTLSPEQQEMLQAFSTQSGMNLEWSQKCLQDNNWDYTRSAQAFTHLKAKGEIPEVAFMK
Briefly: SEC. (In general: SEC sorts molecules by how far they enter the pores of the column.)

Take CAGUCGCAUAGUGCA (ssRNA) [15-mer RNA]: the binding result in data set [1], in data set [2], in data set [3], in data set [4] and in data set [5] was “binds” in each case.

B1: p15 (natural protein)
chain: MASVDFKTYVDQACRAAEEFVNVYYTTMDKRRRLLSRLYMGTATLVWNGNAVSGQESLSEFFEMLPSSEFQISVVDCQPVHDEATPSQTTVLVVICGSVKFEGNKQRDFNQNFILTAQASPSNTVWKIASDCFRFQDWAS
As to B1, the “stoichiometry N” value in data set [6] is 1.
